Measured values taken from patent US20230077716A1.

B1: 2H09 monoclonal antibody (BNA-mAb) (antibody, V domains shown)
VH: EVQLVESGGGLVQPGGSLRLSCAASGVTLDNYWVHWVRQVPGKGLVWVSRINADGTSKTYADSVKGRFTISRDTTRNTLFLQMNSLRGDDTALYFCARGGLYSSDAFDVWGQGTMVTVSS
VL: QSALTQPPSASGSPGQSVTISCTGTSWDVGRYNHVSWYQHHPGKAHKLIIYEVNRRPSGVPDRFSGSKSANTASLTVSGLQAEDEADYYCSSYTGNNVAVFGGGTKLTVL
B2: 3C01 monoclonal antibody (BNA-mAb) (antibody, V domains shown)
VH: EVQLVESGGGLVQPGGSLRLSCAASGFPFSHYYMHWVRRAPGKGLVWVSRIYSDGTSSSYGDSVKGRFTISRDNAKNILYLQMNSLRAEDSATYYCCRGGYYSLDGFDFWGQGTMVTVSS
VL: DIQMTQSPLSLSVSEGDRVTITCRASQGIGNDLGWYQLKPGKAPKRLIYGASSLQSGVPSRFSGSGSGTEFTLTISSLQPEDFATYFCLQHSSFPYTFGQGTKVEIK

Biological target: NA of B/New York/PV00094/17 (Y), on purified virus (Influenza B virus B/New York/PV00094/17)

Binder | percent competition [%]
B1 | 90
B2 | 90
